The values below come from paper PMC3882317 (Cell reports, 2013).

One test addresses T1, Flag-tagged MePCE (UniProt Q7L2J0 1-689).
T1 sequence (looked up): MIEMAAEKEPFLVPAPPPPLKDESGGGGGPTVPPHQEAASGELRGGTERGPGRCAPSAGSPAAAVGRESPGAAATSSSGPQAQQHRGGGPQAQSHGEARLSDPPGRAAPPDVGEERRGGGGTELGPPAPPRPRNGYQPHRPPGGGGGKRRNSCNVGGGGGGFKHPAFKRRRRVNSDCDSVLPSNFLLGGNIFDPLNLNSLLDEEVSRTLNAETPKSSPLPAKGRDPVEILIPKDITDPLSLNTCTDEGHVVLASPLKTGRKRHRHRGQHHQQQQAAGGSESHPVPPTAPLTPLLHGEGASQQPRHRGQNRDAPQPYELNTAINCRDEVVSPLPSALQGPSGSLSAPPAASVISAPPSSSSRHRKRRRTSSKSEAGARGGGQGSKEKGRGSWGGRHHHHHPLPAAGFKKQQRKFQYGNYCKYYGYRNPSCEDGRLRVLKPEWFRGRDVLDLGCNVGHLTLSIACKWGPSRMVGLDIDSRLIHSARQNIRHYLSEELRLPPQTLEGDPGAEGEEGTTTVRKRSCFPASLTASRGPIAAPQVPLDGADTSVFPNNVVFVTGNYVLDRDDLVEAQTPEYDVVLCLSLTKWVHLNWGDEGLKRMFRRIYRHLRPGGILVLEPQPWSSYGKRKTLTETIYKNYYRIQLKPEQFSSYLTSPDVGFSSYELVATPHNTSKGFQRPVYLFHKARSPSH
Nature of the test: pull-down.

A further test addresses T2, Flag-tagged Larp7 (UniProt Q4G0J3 1-582).
T2 sequence (looked up): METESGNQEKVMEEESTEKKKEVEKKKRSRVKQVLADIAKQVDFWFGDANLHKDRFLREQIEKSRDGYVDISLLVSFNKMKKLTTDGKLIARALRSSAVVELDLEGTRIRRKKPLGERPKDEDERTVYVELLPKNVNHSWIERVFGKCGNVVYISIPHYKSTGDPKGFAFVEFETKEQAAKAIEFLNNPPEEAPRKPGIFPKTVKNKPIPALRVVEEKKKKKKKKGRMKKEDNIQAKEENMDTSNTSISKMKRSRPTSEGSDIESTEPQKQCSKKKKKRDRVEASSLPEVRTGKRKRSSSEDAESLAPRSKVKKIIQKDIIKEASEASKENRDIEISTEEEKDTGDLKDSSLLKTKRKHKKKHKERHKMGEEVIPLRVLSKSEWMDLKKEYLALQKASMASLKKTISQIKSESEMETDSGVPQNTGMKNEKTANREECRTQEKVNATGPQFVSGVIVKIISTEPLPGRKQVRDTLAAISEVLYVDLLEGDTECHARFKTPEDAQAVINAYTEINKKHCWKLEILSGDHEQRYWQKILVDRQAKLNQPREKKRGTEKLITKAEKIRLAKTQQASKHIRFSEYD
Nature of the test: pull-down.

B1: Strep-tagged PPM1G (enzyme, UniProt O15355 1-546, looked up)
chain: MGAYLSQPNTVKCSGDGVGAPRLPLPYGFSAMQGWRVSMEDAHNCIPELDSETAMFSVYDGHGGEEVALYCAKYLPDIIKDQKAYKEGKLQKALEDAFLAIDAKLTTEEVIKELAQIAGRPTEDEDEKEKVADEDDVDNEEAALLHEEATMTIEELLTRYGQNCHKGPPHSKSGGGTGEEPGSQGLNGEAGPEDSTRETPSQENGPTAKAYTGFSSNSERGTEAGQVGEPGIPTGEAGPSCSSASDKLPRVAKSKFFEDSEDESDEAEEEEEDSEECSEEEDGYSSEEAENEEDEDDTEEAEEDDEEEEEEMMVPGMEGKEEPGSDSGTTAVVALIRGKQLIVANAGDSRCVVSEAGKALDMSYDHKPEDEVELARIKNAGGKVTMDGRVNGGLNLSRAIGDHFYKRNKNLPPEEQMISALPDIKVLTLTDDHEFMVIACDGIWNVMSSQEVVDFIQSKISQRDENGELRLLSSIVEELLDQCLAPDTSGDGTGCDNMTCIIICFKPRNTAELQPESGKRKLEEVLSTEGAEENGNSDKKKKAKRD
On to B1, for which the binding result in the test with Flag-tagged MePCE and in the test with Flag-tagged Larp7 was “binds” in each case.
